Series [1] concerns mammalian cell HEK293T. The series is described as follows: Expression of recombinant UnaG protein in mammalian cells, fluorescence microscopy. To be noted: fluorescence microscope. The format is cell-based. The text has this: DNA to be inserted to an expression vector for mammalian cell was amplified by PCR using full-length cDNA of the UnaG gene of SEQ ID NO: 2 as template DNA, a sense primer (SEQ ID NO: 24), and an antisense primer (SEQ ID NO: 25). A FLAG-tag sequence (SEQ ID NO: 26) was inserted into the KpnI restriction enzyme site and the BamHI restriction enzyme site of expression vector pcDNA3 (Invitrogen) for mammalian cell, and the amplified DNA fragment was ligated to the BamHI restriction enzyme site and the EcoRI restriction enzyme site of the resulting pcDNA3-FLAG vector and transformed into Escherichia coli strain DH5α for cloning. The vector was extracted from Escherichia coli and was purified. The sequence was confirmed by DNA sequence analysis. Thus, a UnaG expression vector (pcDNA3-FLAG-UnaG) for mammalian cells was constructed. […]
After the expression of protein, the medium was removed from each dish, and the cells were rinsed with PBS. […] The purified FLAG-UnaG protein (holo form) was irradiated with a UV transilluminator for verifying whether fluorescence was present or not. […]
FIG. 1 includes diagrams showing expression of recombinant UnaG protein in Escherichia coli and mammalian cells. […] The diagram (c) includes a differential interference image and a fluorescence image by observation of mammalian cell HEK293T expressing recombinant UnaG protein under a fluorescence microscope. […]

The target of series [2] is T1, apo UnaG protein (Anguilla japonica, UniProt P0DM59).
T1 construct: GST (N, cleaved yes); made in house; host or cells: Escherichia coli BL21 (DE3)
Nature of the series: Reconstruction of apo UnaG protein using bilirubin or bilirubin analog, fluorescence intensity. It counts as binding, Japanese eel (Anguilla japonica). The note with it: 0.5 μM apo UnaG, ligand 0.125-2.0 μM, 30 min room temperature, excitation 497 nm / emission 527 nm. As for the experimental part: Bilirubin or a bilirubin analog, biliverdin (Toronto Research Chemicals), urobilin (MP Biomedicals), or ditaurobilirubin (Frontier Scientific), was diluted with PBS such that the final concentration was 0.125 μM, 0.25 μM, 0.5 μM, 1.0 μM, or 2.0 μM and was mixed with 0.5 μM apo UnaG protein. The mixture was left to stand at room temperature for 30 min. Subsequently, 200 μL of the mixture was added to each well of a 96 well microplate (Greiner Bio-One) and was subjected to measurement of the fluorescence intensity at a wavelength of 527 nm with excitation light having a wavelength of 497 nm using EnSpire multi-mode plate reader (PerkinElmer Co., Ltd.).

Series [3] is described as follows: Measurement of fluorescence spectrum, absorption spectrum, quantum yield and fluorescence lifetime. It counts as physicochemical. As for the experimental part:
In order to analyze the fluorescent properties of UnaG protein, the fluorescence spectrum, absorption spectrum, and quantum yield were measured. The excitation spectrum and the fluorescence spectrum were measured with a spectrophotofluorometer, RF-5300PC (Shimadzu Corporation), at an excitation wavelength of 475 nm and a fluorescence wavelength of 550 nm. The absorption spectrum was measured with a spectrophotometer, U-2900 (Hitachi High-Technologies Corporation). The quantum yield was measured with an absolute quantum yield measurement system, Quantaurus-QY (Hamamatsu Photonics K.K.) at excitation wavelengths of 470 nm and 480 nm. A known fluorescent protein, EGFP, was similarly measured, and the values were compared to those of UnaG protein.
In order to analyze the fluorescent properties of R82EK84E mutant, the fluorescence spectrum, absorption spectrum, and quantum yield were measured. The measurement was performed by the same method as that described in the above-described paragraph 3. The fluorescence lifetime was measured with a small-sized fluorescence lifetime measurement system, Quantaurus-Tau (Hamamatsu Photonics K.K.) and was compared to that of wild-type UnaG protein.
The fluorescence spectrum, absorption spectrum, and quantum yield (excitation wavelength: 470 nm) were measured for analyzing the fluorescent properties of holo A12ES80N mutant protein. The measurement was performed by the same method as that described in paragraph 3, above. The fluorescent properties were compared to those of wild-type UnaG protein.

[4] abbreviates: Table 3, wild-type vs R82EK84E mutant.
Where [5] appears, read: Table 3, wild-type vs R82EK84E mutant, holo form reconstructed with bilirubin.
[6] abbreviates: Table 4, wild-type vs holo A12ES80N mutant.

B1: UnaG: fluorescent polypeptide including the amino acid sequence of SEQ ID NO: 1, originally isolated from Japanese eel; fluoresces in the presence of bilirubin (protein, listed as Anguilla japonica)
chain: MVEKFVGTWKIADSHNFGEYLKAIGAPKELSDGGDATTPTLYISQKDGDKMTVKIENGPPTFLDTQVKFKLGEEFDEFPSDRRKGVKSVVNLVGEKLVYVQKWDGKETTYVREIKDGKLVVTLTMGDVVAVRSYRRATE
For B1, the “fluorescence of expressed protein in cells” value in series [1] is recorded as “emitted fluorescence”. The “fluorescence of UnaG on addition of ligand (specificity)” value in series [2] is “specific to bilirubin”. Further, the Maximum excitation wavelength came out at 498 nm in series [3] (Table 2, UnaG compared to EGFP); 498 nm in series [3] (setting [5]); 499 nm in series [3] (setting [6]). Besides, the Maximum fluorescence wavelength stood at 527 nm in series [3] (Table 2, UnaG compared to EGFP); 527 nm in series [3] (setting [5]); 527 nm in series [3] (setting [6]). The Brightness in series [3] (Table 2, [(Molar extinction coefficient) × (Quantum yield)]/1,000) was 39.4. The Molar extinction coefficient in series [3] (Table 2, at the maximum excitation wavelength (498 nm UnaG, 490 nm EGFP)) is on record as 77,300 (498 nm) M^−1 cm^−1; in series [3] (setting [4]) it was 56,992 M^−1 cm^−1; in series [3] (setting [6]), 52,687 M^−1 cm^−1. Moreover, the Quantum yield in series [3] (Table 2, excitation wavelengths 470 nm and 480 nm) amounted to 51%; in series [3] (setting [4]), 51%; in series [3] (Table 4, excitation wavelength 470 nm), 53.2%. Further, in series [3] (Table 3, wild-type vs R82EK84E mutant, Quantaurus-Tau), the “Fluorescence lifetime (τ1/ns)” value was determined as 2.2 ns. Further, the Fluorescence lifetime in series [3] (main fluorescent properties of UnaG) is reported as 2.2 nanosecond.

The values above are taken from patent US9957308B2, “Method for detecting bilirubin using a fluorescent protein” (RIKEN, priority 2013, dated 2018).
